From patent US20250340902A1, “GENE THERAPY FOR BVES-RELATED DISORDERS” (OHIO STATE INNOVATION FOUNDATION, priority 2022, published 2025)

What was measured:
Assay in all cases: anti-HA co-IP from muscle, MS; CTRL 0
Talin-2 (Mus musculus) = Talin-2 (Mus musculus) (UniProt Q71LX4)
[1] = target: Heterogeneous nuclear ribonucleoprotein H2 (Mus musculus) (UniProt P70333)
Myocilin (Mus musculus) = Myocilin (Mus musculus) (UniProt O70624)
[2] = target: Mannose-binding protein C (Mus musculus) (UniProt P41317)
[3] = target: Triggering receptor expressed on myeloid cells 2 (Mus musculus) (UniProt Q99NH8)
Nesprin-2 (Mus musculus) = Nesprin-2 (Mus musculus) (UniProt Q6ZWQ0)
[4] = target: Beta-sarcoglycan (Mus musculus) (UniProt P82349)
[5] = target: Heterogeneous nuclear ribonucleoprotein M (Mus musculus) (UniProt Q9D0E1)
[6] = target: Phosphatidylinositol 5-phosphate 4-kinase type-2 beta (Mus musculus) (UniProt Q80XI4)
[7] = target: Haloacid dehalogenase-like hydrolase domain-containing protein 2 (Mus musculus) (UniProt Q3UGR5)
[8] = target: Lupus La protein homolog (Mus musculus) (UniProt P32067)
[9] = target: Endoplasmic reticulum transmembrane helix translocase (Mus musculus) (UniProt Q9EPE9)
[10] = target: C-1-tetrahydrofolate synthase, cytoplasmic (Mus musculus) (UniProt Q922D8)
[11] = target: Medium-chain specific acyl-CoA dehydrogenase, mitochondrial (Mus musculus) (UniProt P45952)
[12] = target: RUN and FYVE domain-containing protein 1 (Mus musculus) (UniProt Q8BIJ7)
[13] = target: Glutamine amidotransferase-like class 1 domain-containing protein 3A, mitochondrial (Mus musculus) (UniProt Q9D172)
[14] = target: Serine-threonine kinase receptor-associated protein (Mus musculus) (UniProt Q9Z1Z2)
[15] = target: Leucine-rich PPR motif-containing protein, mitochondrial (Mus musculus) (UniProt Q6PB66)
Fibulin-1 (Mus musculus) = Fibulin-1 (Mus musculus) (UniProt Q08879)
Cullin-2 (Mus musculus) = Cullin-2 (Mus musculus) (UniProt Q9D4H8)
[16] = target: Plasma membrane calcium-transporting ATPase 1 (Mus musculus) (UniProt G5E829)
[17] = target: NADH dehydrogenase [ubiquinone] iron-sulfur protein 6, mitochondrial (Mus musculus) (UniProt P52503)
[18] = target: NADH dehydrogenase [ubiquinone] iron-sulfur protein 3, mitochondrial (Mus musculus) (UniProt Q9DCT2)
[19] = target: Ran GTPase-activating protein 1 (Mus musculus) (UniProt P46061)
[20] = target: Dual specificity mitogen-activated protein kinase kinase 3 (Mus musculus) (UniProt O09110)
[21] = target: N-alpha-acetyltransferase 50 (Mus musculus) (UniProt Q6PGB6)
[22] = target: Tetraspanin-8 (Mus musculus) (UniProt Q8R3G9)
Ankyrin-2 (Mus musculus) = Ankyrin-2 (Mus musculus) (UniProt Q8C8R3)
[23] = target: U2 small nuclear ribonucleoprotein B″ (Mus musculus) (UniProt Q9CQI7)
[24] = target: U1 small nuclear ribonucleoprotein 70 kDa (Mus musculus) (UniProt Q62376)
[25] = target: 26S proteasome non-ATPase regulatory subunit 7 (Mus musculus) (UniProt P26516)
[26] = target: Obg-like ATPase 1 (Mus musculus) (UniProt Q9CZ30)
[27] = target: Flavin reductase (NADPH) (Mus musculus) (UniProt Q923D2)
[28] = target: Transcriptional regulator ATRX (Mus musculus) (UniProt Q61687)
[29] = target: C-type lectin domain family 3 member A (Mus musculus) (UniProt Q9EPW4)
[30] = target: Exosome complex exonuclease RRP44 (Mus musculus) (UniProt Q9CSH3)
[31] = target: Sorting and assembly machinery component 50 homolog (Mus musculus) (UniProt Q8BGH2)
[32] = target: Phosphofurin acidic cluster sorting protein 1 (Mus musculus) (UniProt Q8K212)

Exosome complex exonuclease RRP44 (Mus musculus), sequence (Q9CSH3 whole entry, one chain of several): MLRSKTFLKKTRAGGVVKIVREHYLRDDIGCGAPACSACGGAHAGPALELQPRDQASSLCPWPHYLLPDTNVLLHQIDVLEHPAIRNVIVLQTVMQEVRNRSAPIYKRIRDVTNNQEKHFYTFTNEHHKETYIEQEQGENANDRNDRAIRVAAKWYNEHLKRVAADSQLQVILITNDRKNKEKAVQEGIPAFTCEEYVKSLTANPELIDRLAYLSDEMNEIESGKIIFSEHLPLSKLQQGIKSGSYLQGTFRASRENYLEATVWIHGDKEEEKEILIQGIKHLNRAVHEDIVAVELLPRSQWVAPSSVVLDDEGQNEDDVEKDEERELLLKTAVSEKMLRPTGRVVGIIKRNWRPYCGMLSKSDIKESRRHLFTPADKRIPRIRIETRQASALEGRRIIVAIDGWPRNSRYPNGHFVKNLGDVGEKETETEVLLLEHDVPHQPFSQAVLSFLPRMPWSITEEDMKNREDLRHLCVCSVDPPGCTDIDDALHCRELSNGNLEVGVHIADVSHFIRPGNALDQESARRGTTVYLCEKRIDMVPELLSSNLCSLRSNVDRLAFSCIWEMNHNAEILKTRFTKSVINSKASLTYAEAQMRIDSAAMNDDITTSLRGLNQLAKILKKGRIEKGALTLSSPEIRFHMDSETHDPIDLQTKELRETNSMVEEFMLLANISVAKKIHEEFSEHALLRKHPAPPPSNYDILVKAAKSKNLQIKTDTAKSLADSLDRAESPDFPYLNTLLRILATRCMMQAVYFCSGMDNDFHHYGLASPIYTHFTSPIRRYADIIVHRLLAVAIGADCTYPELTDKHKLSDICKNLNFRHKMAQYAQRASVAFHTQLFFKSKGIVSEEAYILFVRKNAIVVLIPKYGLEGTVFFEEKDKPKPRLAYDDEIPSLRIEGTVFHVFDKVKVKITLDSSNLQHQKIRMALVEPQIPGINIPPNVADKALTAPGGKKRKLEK
Triggering receptor expressed on myeloid cells 2 (Mus musculus), sequence (Q99NH8 19-227 limits assumed): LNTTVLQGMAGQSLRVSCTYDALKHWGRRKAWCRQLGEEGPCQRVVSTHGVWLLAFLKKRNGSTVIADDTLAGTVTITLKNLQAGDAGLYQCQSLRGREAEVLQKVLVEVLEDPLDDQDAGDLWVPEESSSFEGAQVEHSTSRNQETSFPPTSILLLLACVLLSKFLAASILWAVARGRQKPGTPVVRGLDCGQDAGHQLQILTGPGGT
C-type lectin domain family 3 member A (Mus musculus), sequence (Q9EPW4 23-196 limits assumed): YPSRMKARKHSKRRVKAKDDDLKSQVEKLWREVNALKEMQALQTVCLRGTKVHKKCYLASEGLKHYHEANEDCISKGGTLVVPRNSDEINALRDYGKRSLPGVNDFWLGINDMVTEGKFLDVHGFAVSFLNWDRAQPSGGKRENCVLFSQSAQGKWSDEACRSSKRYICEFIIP
C-1-tetrahydrofolate synthase, cytoplasmic (Mus musculus), sequence (Q922D8 whole entry): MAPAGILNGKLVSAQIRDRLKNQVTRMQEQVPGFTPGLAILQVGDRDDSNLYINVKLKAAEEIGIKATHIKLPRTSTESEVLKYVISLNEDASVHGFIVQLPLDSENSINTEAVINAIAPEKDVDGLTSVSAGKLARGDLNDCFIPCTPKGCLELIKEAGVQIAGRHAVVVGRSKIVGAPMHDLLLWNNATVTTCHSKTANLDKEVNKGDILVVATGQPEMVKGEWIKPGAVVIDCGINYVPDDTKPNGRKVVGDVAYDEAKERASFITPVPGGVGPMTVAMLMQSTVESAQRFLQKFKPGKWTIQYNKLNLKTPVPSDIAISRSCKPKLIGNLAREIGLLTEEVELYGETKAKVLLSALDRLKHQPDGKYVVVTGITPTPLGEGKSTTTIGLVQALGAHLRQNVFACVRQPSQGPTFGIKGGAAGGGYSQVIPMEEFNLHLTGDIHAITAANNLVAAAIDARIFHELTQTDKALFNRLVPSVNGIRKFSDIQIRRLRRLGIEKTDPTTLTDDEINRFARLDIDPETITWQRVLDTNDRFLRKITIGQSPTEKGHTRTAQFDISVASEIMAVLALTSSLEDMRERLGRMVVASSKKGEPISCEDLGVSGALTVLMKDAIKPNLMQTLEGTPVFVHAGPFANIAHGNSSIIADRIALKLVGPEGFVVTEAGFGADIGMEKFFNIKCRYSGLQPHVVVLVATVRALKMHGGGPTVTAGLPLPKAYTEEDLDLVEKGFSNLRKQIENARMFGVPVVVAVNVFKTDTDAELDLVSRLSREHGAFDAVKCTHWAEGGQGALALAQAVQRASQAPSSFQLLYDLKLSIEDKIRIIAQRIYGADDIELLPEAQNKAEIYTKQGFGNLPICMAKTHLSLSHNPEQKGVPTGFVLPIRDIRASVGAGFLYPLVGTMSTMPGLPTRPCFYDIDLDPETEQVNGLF
Endoplasmic reticulum transmembrane helix translocase (Mus musculus), sequence (Q9EPE9 whole entry): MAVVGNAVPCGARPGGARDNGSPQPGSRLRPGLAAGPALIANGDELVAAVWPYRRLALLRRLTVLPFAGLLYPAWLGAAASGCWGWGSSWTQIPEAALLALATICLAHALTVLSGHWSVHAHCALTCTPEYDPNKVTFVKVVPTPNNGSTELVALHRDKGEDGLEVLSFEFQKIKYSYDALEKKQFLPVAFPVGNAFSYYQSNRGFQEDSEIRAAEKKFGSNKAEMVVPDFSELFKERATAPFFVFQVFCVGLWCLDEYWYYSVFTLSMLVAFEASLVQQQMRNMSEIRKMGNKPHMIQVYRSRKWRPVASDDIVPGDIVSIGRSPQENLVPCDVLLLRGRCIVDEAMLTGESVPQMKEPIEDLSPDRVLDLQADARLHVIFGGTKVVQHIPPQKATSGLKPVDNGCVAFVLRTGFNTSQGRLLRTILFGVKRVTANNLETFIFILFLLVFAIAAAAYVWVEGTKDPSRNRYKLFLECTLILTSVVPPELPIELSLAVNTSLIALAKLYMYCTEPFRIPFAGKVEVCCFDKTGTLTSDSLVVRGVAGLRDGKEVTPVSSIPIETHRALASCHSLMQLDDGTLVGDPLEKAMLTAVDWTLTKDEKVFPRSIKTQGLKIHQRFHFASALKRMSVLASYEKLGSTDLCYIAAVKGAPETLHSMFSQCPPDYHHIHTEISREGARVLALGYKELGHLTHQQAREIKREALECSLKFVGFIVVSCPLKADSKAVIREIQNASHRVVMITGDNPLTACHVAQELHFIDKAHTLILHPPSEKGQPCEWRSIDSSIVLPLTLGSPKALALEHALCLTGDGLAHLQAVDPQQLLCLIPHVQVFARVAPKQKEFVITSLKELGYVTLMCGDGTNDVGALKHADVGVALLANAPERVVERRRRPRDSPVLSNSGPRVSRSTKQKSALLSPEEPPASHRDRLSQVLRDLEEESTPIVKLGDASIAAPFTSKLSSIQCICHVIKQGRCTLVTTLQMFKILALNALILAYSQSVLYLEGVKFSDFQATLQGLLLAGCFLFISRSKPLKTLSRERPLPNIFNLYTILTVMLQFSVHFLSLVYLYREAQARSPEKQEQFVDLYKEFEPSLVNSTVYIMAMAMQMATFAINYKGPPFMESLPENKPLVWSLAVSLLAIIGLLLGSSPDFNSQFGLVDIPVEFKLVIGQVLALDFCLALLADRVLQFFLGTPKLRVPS
Sorting and assembly machinery component 50 homolog (Mus musculus), sequence (Q8BGH2 whole entry): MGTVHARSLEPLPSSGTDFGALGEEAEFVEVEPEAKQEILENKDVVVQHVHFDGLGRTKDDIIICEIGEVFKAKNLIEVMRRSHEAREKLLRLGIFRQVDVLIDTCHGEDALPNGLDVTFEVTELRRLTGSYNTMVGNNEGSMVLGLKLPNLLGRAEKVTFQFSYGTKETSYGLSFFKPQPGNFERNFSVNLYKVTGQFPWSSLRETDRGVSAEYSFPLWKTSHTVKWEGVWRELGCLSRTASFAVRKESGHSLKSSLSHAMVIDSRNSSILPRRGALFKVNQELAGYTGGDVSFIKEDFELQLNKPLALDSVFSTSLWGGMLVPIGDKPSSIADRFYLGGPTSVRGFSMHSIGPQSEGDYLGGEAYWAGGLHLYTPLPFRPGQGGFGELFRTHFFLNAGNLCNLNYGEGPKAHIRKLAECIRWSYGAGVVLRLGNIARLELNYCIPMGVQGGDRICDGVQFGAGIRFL
Phosphatidylinositol 5-phosphate 4-kinase type-2 beta (Mus musculus), sequence (Q80XI4 2-416 limits assumed): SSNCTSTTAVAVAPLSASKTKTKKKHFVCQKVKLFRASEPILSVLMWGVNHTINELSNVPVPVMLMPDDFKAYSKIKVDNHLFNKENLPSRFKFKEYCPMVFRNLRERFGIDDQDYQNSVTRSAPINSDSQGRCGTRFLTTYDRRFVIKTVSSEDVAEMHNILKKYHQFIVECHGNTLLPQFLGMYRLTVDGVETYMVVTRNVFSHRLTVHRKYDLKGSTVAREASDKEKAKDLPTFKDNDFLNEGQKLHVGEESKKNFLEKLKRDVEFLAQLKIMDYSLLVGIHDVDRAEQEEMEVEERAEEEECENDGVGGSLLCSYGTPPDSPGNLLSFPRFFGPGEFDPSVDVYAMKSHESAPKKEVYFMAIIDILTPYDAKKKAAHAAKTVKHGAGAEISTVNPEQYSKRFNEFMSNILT
U1 small nuclear ribonucleoprotein 70 kDa (Mus musculus), sequence (Q62376 2-448 limits assumed): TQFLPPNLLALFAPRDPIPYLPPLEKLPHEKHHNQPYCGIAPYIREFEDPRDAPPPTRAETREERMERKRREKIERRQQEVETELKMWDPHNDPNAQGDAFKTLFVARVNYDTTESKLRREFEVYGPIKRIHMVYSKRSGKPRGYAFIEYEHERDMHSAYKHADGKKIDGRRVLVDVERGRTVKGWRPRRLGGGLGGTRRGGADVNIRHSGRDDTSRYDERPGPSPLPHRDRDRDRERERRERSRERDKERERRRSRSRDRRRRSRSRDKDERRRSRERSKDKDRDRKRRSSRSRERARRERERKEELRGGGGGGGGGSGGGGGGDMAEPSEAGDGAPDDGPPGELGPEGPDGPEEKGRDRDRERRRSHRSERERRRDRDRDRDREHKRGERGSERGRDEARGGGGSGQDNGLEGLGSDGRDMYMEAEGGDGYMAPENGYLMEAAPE
NADH dehydrogenase [ubiquinone] iron-sulfur protein 6, mitochondrial (Mus musculus), sequence (P52503 21-116 limits assumed): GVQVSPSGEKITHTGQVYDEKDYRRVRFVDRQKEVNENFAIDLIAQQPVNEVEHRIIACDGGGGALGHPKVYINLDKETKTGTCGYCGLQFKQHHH

AAV9-BVES-HA (IP-MS count) (Talin-2 (Mus musculus)): 3
AAV9-BVES-HA (IP-MS count) [1]: 4
AAV9-BVES-HA (IP-MS count) (Myocilin (Mus musculus)): 2
AAV9-BVES-HA (IP-MS count) [2]: 2
AAV9-BVES-HA (IP-MS count) [3]: 2
AAV9-BVES-HA (IP-MS count) (Nesprin-2 (Mus musculus)): 2
AAV9-BVES-HA (IP-MS count) [4]: 9
AAV9-BVES-HA (IP-MS count) [5]: 2
AAV9-BVES-HA (IP-MS count) [6]: 2
AAV9-BVES-HA (IP-MS count) [7]: 3
AAV9-BVES-HA (IP-MS count) [8]: 2
AAV9-BVES-HA (IP-MS count) [9]: 3
AAV9-BVES-HA (IP-MS count) [10]: 2
AAV9-BVES-HA (IP-MS count) [11]: 2
AAV9-BVES-HA (IP-MS count) [12]: 5
AAV9-BVES-HA (IP-MS count) [13]: 4
AAV9-BVES-HA (IP-MS count) [14]: 2
AAV9-BVES-HA (IP-MS count) [15]: 8
AAV9-BVES-HA (IP-MS count) (Fibulin-1 (Mus musculus)): 3
AAV9-BVES-HA (IP-MS count) (Cullin-2 (Mus musculus)): 3
AAV9-BVES-HA (IP-MS count) [16]: 34
AAV9-BVES-HA (IP-MS count) [17]: 2
AAV9-BVES-HA (IP-MS count) [18]: 4
AAV9-BVES-HA (IP-MS count) [19]: 2
AAV9-BVES-HA (IP-MS count) [20]: 3
AAV9-BVES-HA (IP-MS count) [21]: 2
AAV9-BVES-HA (IP-MS count) [22]: 2
AAV9-BVES-HA (IP-MS count) (Ankyrin-2 (Mus musculus)): 36
AAV9-BVES-HA (IP-MS count) [23]: 2
AAV9-BVES-HA (IP-MS count) [24]: 2
AAV9-BVES-HA (IP-MS count) [25]: 2
AAV9-BVES-HA (IP-MS count) [26]: 2
AAV9-BVES-HA (IP-MS count) [27]: 2
AAV9-BVES-HA (IP-MS count) [28]: 6
AAV9-BVES-HA (IP-MS count) [29]: 6
AAV9-BVES-HA (IP-MS count) [30]: 2
AAV9-BVES-HA (IP-MS count) [31]: 5
AAV9-BVES-HA (IP-MS count) [32]: 2
Substance: human BVES fused with 3xHA tag (from UniProt Q8NE79 1-360)
